The text below walks through data of paper PMC8463545.

Holding throughout (test): SPR
What all share (conditions): EMSA: 10 mM Tris-HCl pH 7.5, 50 mM KCl, 1 mM DTT, 0.4% glycerol, 20 uL, 28 C, 25-30 min; 5% native gel, 0.5x TBE, 4 C; SPR conditions not given

Series [1] has as its system HtsH2C-HA-His (Lysobacter enzymogenes OH11).
For series [2], the system named is HtsH1C-Flag-His (Lysobacter enzymogenes OH11).
For series [3], the system named is HtsH3C-Myc-His (Lysobacter enzymogenes OH11).

As usually defined, the Kd is the free concentration of one partner at which half of the binding sites on the other are occupied at equilibrium, for simple one-to-one binding. High values mean a looser complex, low ones a tighter complex. Consider plafB (SPR), for which the equilibrium dissociation constant (Kd) worked out at 1380 nM in series [1], 536 nM in series [2] and 249 nM in series [3].
